For the assay, the system named is hnRNP A1. Description: Immunoprecipitation/WB of hnRNP A1-Flag from HeLa cells with PARG added to the IP system. The format is biochemical, human. On the procedure:
The steps of HeLa cell culture and plasmid transfection are as described in Example 1. To increase the level of PARylation in HeLa cells after transfection with the plasmids described in 3.1.1, the cell culture medium was removed before collection, 500 μM hydrogen peroxide (diluted in PBS) was added to the cells followed by incubating for 10 min at 37° C. The stimulated HeLa cells can be used for subsequent experiments.
Cells treated according to 3.1.2 were lysed with the following lysis buffer: 25 mM Tris-HCl pH 7.4, 150 mM NaCl, 1% NP-40, 1 mM EDTA, 5% glycerol, protease inhibitor (Roche), 20 μM Olaparib (Selleck) and 8 μM ADP-HPD (Millopore). For enrichment of TDP-43 with HA tag, the lysate was added with HA antibody (Mouse anti-HA (Proteintech)) for overnight incubation at 4° C. followed by enrichment of primary antibody-sample complexes with Dynabeads® Protein G beads (Novex) for 2 hours at room temperature; for Flag-tagged hnRNP Al, the lysate was added directly to anti-FLAG® M2 Affinity Gel (Sigma) followed by incubation at 4° C. To ablate the polyribose moiety in vitro, 1μ purified PARG protein (Sigma) was added to a mixture of anti-FLAG® M2 Affinity Gel (Sigma) and cell lysate, and incubated for 1 h at 37° C. After incubation, the product was washed 3-5 times with lysis buffer, and added with 4×LDS sample buffer (Invitrogen) and boiled at 95° C. for subsequent studies. […]

B1: PARG protein: purified PARG protein (Sigma), poly(ADP-ribose) glycohydrolase (protein, UniProt Q86W56 1-976, looked up)
Poly(ADP-ribose) …: MNAGPGCEPCTKRPRWGAATTSPAASDARSFPSRQRRVLDPKDAHVQFRVPPSSPACVPGRAGQHRGSATSLVFKQKTITSWMDTKGIKTAESESLDSKENNNTRIESMMSSVQKDNFYQHNVEKLENVSQLSLDKSPTEKSTQYLNQHQTAAMCKWQNEGKHTEQLLESEPQTVTLVPEQFSNANIDRSPQNDDHSDTDSEENRDNQQFLTTVKLANAKQTTEDEQAREAKSHQKCSKSCDPGEDCASCQQDEIDVVPESPLSDVGSEDVGTGPKNDNKLTRQESCLGNSPPFEKESEPESPMDVDNSKNSCQDSEADEETSPGFDEQEDGSSSQTANKPSRFQARDADIEFRKRYSTKGGEVRLHFQFEGGESRTGMNDLNAKLPGNISSLNVECRNSKQHGKKDSKITDHFMRLPKAEDRRKEQWETKHQRTERKIPKYVPPHLSPDKKWLGTPIEEMRRMPRCGIRLPLLRPSANHTVTIRVDLLRAGEVPKPFPTHYKDLWDNKHVKMPCSEQNLYPVEDENGERTAGSRWELIQTALLNKFTRPQNLKDAILKYNVAYSKKWDFTALIDFWDKVLEEAEAQHLYQSILPDMVKIALCLPNICTQPIPLLKQKMNHSITMSQEQIASLLANAFFCTFPRRNAKMKSEYSSYPDINFNRLFEGRSSRKPEKLKTLFCYFRRVTEKKPTGLVTFTRQSLEDFPEWERCEKPLTRLHVTYEGTIEENGQGMLQVDFANRFVGGGVTSAGLVQEEIRFLINPELIISRLFTEVLDHNECLIITGTEQYSEYTGYAETYRWSRSHEDGSERDDWQRRCTEIVAIDALHFRRYLDQFVPEKMRRELNKAYCGFLRPGVSSENLSAVATGNWGCGAFGGDARLKALIQILAAAAAERDVVYFTFGDSELMRDIYSMHIFLTERKLTVGDVYKLLLRYYNEECRNCSTPGPDIKLYPFIYHAVESCAETADHSGQRTGT
Take B1: the “amount of endogenous TDP-43 protein co-precipitated with hnRNP A1” value (added to the IP system) is on record as “significantly reduced”. The “PARylation level of hnRNP A1 itself and PARylated proteins that interact with it” value (hydrogen peroxide-stimulated HeLa, added to the IP system for 1 h) is “significantly reduced”.

The record behind these values is patent US20220110936A1, “PHARMACEUTICAL COMPOSITION FOR TREATMENT OF NEURODEGENERATIVE DISEASES OR DISEASES CAUSED BY ABNORMALITY OF RNA BINDING PROTEIN AND APPLICATIONS THEREOF” (Shanghai Institute of Organic Chemistry, Chinese Academy of …, priority 2019, published 2022).
